Laboratory results from patent publication US20250144178A1 (KANAPH THERAPEUTICS, published 2025).
Residue numbers refer to the chain shown, from its start.

Experiments:
[1] = target: T1, mouse FAP (fibroblast activation protein alpha) overexpressed in B16F10 cells (B16F10-mFAP) (mouse, UniProt P97321 1-761); assay: flow cytometry on B16F10-mFAP cells, detection with anti-mouse IgG2a antibody
T1 construct: whole, on cells; also called mouse FAP-expressing cell line
T1 sequence (looked up): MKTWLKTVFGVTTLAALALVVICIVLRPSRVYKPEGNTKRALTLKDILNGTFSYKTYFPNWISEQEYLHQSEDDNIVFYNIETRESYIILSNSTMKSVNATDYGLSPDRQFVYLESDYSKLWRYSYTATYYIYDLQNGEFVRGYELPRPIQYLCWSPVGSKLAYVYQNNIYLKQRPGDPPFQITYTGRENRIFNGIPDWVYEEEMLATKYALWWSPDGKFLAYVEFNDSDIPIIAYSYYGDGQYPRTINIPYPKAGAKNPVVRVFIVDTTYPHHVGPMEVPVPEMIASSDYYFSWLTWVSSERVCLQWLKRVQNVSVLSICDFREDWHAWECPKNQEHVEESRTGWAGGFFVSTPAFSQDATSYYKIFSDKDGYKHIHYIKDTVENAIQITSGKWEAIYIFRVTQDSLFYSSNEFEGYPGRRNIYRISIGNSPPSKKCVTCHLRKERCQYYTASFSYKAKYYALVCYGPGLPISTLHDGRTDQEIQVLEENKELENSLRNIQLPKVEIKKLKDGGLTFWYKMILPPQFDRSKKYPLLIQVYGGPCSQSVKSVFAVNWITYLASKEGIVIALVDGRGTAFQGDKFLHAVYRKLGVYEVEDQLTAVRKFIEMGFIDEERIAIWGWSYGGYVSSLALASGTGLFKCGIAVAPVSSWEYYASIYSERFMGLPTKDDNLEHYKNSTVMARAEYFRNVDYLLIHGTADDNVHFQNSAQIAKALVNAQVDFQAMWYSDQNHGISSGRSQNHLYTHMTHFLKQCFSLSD
Experimental: (§1) Specifically, the cell line was prepared by suspending in a FACS buffer solution at 1×10⁵ cells/100 μl, and treated with 1 μg of each T1.12m, T1.01m, T1.02m and T1.03m. The cells were washed twice with a FACS buffer solution. The cells were stained with an anti-mouse IgG2a antibody (Biolegend). The negative control was stained only with an anti-mouse IgG2a antibody (Biolegend). The expression rate of the stained cells was measured using BD LSR and analyzed using a FlowJo software.

[2] = target: T2, recombinant mouse FAP (mouse, UniProt P97321 26-761); assay: SPR, fusion protein captured by anti-mouse IgG (Fc) on a CM5 chip, mouse FAP as analyte 1.5625-100 nM, 1:1 binding model
T2 construct: Soluble analyte in SPR
T2 sequence (looked up): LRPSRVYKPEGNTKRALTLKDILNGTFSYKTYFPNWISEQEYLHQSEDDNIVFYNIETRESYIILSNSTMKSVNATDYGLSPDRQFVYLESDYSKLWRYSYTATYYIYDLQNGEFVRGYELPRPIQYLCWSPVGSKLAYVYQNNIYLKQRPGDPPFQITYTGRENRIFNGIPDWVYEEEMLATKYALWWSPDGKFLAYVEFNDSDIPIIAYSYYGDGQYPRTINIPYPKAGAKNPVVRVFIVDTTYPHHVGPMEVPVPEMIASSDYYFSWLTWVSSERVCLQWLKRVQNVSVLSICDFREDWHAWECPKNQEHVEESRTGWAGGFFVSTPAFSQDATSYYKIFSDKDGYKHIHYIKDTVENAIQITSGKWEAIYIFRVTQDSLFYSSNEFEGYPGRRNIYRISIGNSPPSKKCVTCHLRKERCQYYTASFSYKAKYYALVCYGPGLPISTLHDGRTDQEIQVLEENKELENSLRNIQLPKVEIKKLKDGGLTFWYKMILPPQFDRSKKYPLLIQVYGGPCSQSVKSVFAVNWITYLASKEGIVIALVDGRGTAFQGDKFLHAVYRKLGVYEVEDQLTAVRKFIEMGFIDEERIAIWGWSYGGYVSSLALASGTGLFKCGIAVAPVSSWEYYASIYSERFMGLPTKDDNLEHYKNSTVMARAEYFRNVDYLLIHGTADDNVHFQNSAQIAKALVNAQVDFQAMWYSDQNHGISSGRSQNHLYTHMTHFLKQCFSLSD

[3] = target: T1, mouse FAP (fibroblast activation …); assay: flow cytometry on B16F10-mFAP cells, 1 µg protein per 1x10^5 cells, anti-mouse IgG2a detection
Experimental: as §1

[4] = target: T3, B16F10; assay: flow cytometry on parental B16F10 cells, detection with anti-mouse IgG2a antibody
T3 construct: not a protein target; also called parental B16F10 cells, without the transduced mouse FAP gene
Experimental: as §1

[5] = target: T2, recombinant mouse FAP; assay: SPR, fusion protein captured by anti-mouse IgG (Fc) on a CM5 chip, mouse FAP as analyte 1.5625-200 nM, 1:1 binding model
Experimental: The surface of the CM5 chip was activated with a 1:1 mixture of […] (N-hydroxysuccinimide) and […] (1-Ethyl-3-(3-dimethylaminopropyl) carbodiimide), and 25 μg/ml of anti-mouse IgG (Fc) antibody was immobilized for 400 seconds at a rate of 10 μl/min. The remaining active ester groups were blocked with 1 M ethanolamine. T1.01m, T1.02m and T1.03m were diluted to 2 μg/ml and reacted on the CM5 chip immobilized with the anti-mouse IgG (Fc) antibody. The recombinant mouse FAP was diluted to 200 nM in 1×HBS-EP+buffer solution and diluted by serial dilution. The diluted recombinant mouse FAP was reacted at a rate of 30 μl/min. The association and dissociation times were 180 seconds and 400 seconds, respectively. After the dissociation, stabilization was performed for 60 seconds, and then a regeneration was performed for 30 seconds with a 10 mM glycine pH 1.5 solution at a rate of 30 μl/min.

B1: T1.02m (anti-mu FAP/mu IL-12 mut1, mu IgG2a DANG) (bispecific antibody)
heavy: QVQLQQSGAELARPGASVNLSCKASGYTFTNNGINWLKQRTGQGLEWIGEIYPRSTNTLYNEKFKGKATLTADRSSNTAYMELRSLTSEDSAVYFCARTLTAPFAFWGQGTLVTVSAAKTTAPSVYPLAPVCGDTTGSSVTLGCLVKGYFPEPVTLTWNSGSLSSGVHTFPAVLQSDLYTLSSSVTVTSSTWPSQSITCNVAHPASSTKVDKKIEPRGPTIKPCPPCKCPAPNLLGGPSVFIFPPKIKDVLMISLSPIVTCVVVAVSEDDPDVQISWFVNNVEVHTAQTQTHREDYGSTLRVVSALPIQHQDWMSGKEFKCKVNNKDLPAPIERTISKPKGSVRAPQVYVLPPPEEEMTKKQVTLWCMVTDFMPEDIYVEWTNNGKTELNYKNTEPVLDSDGSYFMYSKLRVEKKNWVERNSYSCSVVHEGLHNHHTTKSFSRTPGK
light: QIVLTQSPAIMSASPGEKVTMTCSASSGVNFMHWYQQKSGTSPKRWIFDTSKLASGVPARFSGSGSGTSYSLTISSMEAEDAATYYCQQWSFNPPTFGGGTKLEIKRADAAPTVSIFPPSSEQLTSGGASVVCFLNNFYPKDINVKWKIDGSERQNGVLNSWTDQDSKDSTYSMSSTLTLTKDEYERHNSYTCEATHKTSTSPIVKSFNRNEC
chain: MWELEKDVYVVEVDWTPDAPGETVNLTCDTPEEDDITWTSDQRHGVIGSGKTLTITVKEFLDAGQYTCHKGGETLSHSHLLLHKKENGIWSTEILKNFKNKTFLKCEAPNYSGRFTCSWLVQRNMDLKFNIKSSSSSPDSRAVTCGMASLSAEKVTLDQRDYEKYSVSCQEDVTCPTAEETLPIELALEARQQNKYENYSTSFFIRDIIKPDPPKNLQMKPLKNSQVEVSWEYPDSWSTPHSYFSLKFFVRIQRAKEKMAETEEGCNQKGAFLVEKTSTEVQCKGGNVCVQAQDRYYNSSCSKWACVPCRVRSGGGGSGGGGSGGGGSRVIPVSGPARCLSQSRNLLKTTDDMVKTAREKLKHYSCTAEDIDHEDITRDQTSTLKTCLPLELHKNESCLATRETSSTTRGSCLPPQKTSLMMTLCLGSIYEDLKMYQTEFQAINAALQNHNHQQIILDKGMLVAIDELMQSLNHNGETLRQKPPVGEADPYRVKMKLCILLHAFSTRVVTINRVMGYLSSAGGGGSGGGGSEPRGPTIKPCPPCKCPAPNLLGGPSVFIFPPKIKDVLMISLSPIVTCVVVAVSEDDPDVQISWFVNNVEVHTAQTQTHREDYGSTLRVVSALPIQHQDWMSGKEFKCKVNNKDLPAPIERTISKPKGSVRAPQVYVLPPPEEEMTKKQVTLSCAVTDFMPEDIYVEWTNNGKTELNYKNTEPVLDSDGSYFMVSKLRVEKKNWVERNSYSCSVVHEGLHNHHTTKSFSRTPGK
notes: Mouse surrogate, knob-in-hole heterodimer
percent of cells in the positive gate (mFAP-PE) [1]: 92.1% | Kd [2]: 1.53 nM | koff [2]: 0.00014 s⁻¹ | kon [2]: 91500 M⁻¹ s⁻¹ | percent of cells bound [3]: ≥ 99% | percent of cells in the positive gate (mFAP-PE) [4]: 1.37%

B2: T1.12m (anti-mu FAP/null, mu IgG2a DANG) (antibody)
heavy: B1 heavy
light: B1 light
chain: EPRGPTIKPCPPCKCPAPNLLGGPSVFIFPPKIKDVLMISLSPIVTCVVVAVSEDDPDVQISWFVNNVEVHTAQTQTHREDYGSTLRVVSALPIQHQDWMSGKEFKCKVNNKDLPAPIERTISKPKGSVRAPQVYVLPPPEEEMTKKQVTLSCAVTDFMPEDIYVEWTNNGKTELNYKNTEPVLDSDGSYFMVSKLRVEKKNWVERNSYSCSVVHEGLHNHHTTKSFSRTPGK
notes: One-armed anti-mouse FAP antibody without IL-12; control
percent of cells in the positive gate (mFAP-PE) [1]: 92.6% | percent of cells bound [3]: ≥ 99% | percent of cells in the positive gate (mFAP-PE) [4]: 1.97%

B3: T1.01m (anti-mu FAP/mu IL-12, mu IgG2a DANG) (bispecific antibody)
heavy: B1 heavy
light: B1 light
chain: B1 chain with A255K, A260K
notes: as for B1
percent of cells in the positive gate (mFAP-PE) [1]: 93.7% | Kd [2]: 1.51 nM | koff [2]: 6.75e-05 s⁻¹ | kon [2]: 44700 M⁻¹ s⁻¹ | percent of cells bound [3]: ≥ 99% | percent of cells in the positive gate (mFAP-PE) [4]: 2.41%

B4: T1.03m (anti-mu FAP/mu IL-12 mut2, mu IgG2a DANG) (bispecific antibody)
heavy: B1 heavy
light: B1 light
chain: B1 chain with R254A, K256A
notes: as for B1
percent of cells in the positive gate (mFAP-PE) [1]: 91.6% | Kd [5]: 1.25 nM | koff [5]: 7.66e-05 s⁻¹ | kon [5]: 61200 M⁻¹ s⁻¹ | percent of cells bound [3]: ≥ 99% | percent of cells in the positive gate (mFAP-PE) [4]: 0.89%
